The data set deals with Exo1 (exonuclease). Put plainly: ITC. The following applies: ITC: 67 mM glycine-KOH, 6.7 mM MgCl2, 1 mM TCEP, 37 C (Methods: 100 uM aptamer into 10 uM Exo1; Results text: 10 uM into 1 uM). Cells: Dulbecco's PBS, 5 mM ….

The Kd is the constant that tells how readily two partners part at equilibrium. Low values mean higher affinity, high ones lower affinity.

With “ATCTAACTGCTGCGCCGCCGGGAAAATACTGTACGGTTAGA [Sgc8 (S01)]”, the Kd stood at 0.001 µM.
“NATCTAACTGCNGCGCCGCCGGGAAAATACTGTACGGTTAGAT [GS01 (5' GalN-Sgc8)]”: the Kd (5'-terminal GalNAc-modified base (N1, printed X), position 12 is also printed X, but the text describes only 5' modification, so likely a misprint for T) was 662 µM.
